For data set [1], the system named is HeLa Kyoto. The data set is described as follows: solubility in G1/S (NP-40 vs SDS abundance) (log2 ratio); higher = more soluble. Conditions: cell cycle stage: G1/S.
Data set [2] relates to HeLa Kyoto. The data set is described as follows: melting temperature (median over replicates), in situ; higher = more thermally stable.
Data set [3] relates to HeLa Kyoto. The data set is described as follows: solubility change mitosis vs G1/S (difference of NP-40 vs SDS log2 ratios) (log2 ratio difference); higher = more soluble in mitosis.
For data set [4], the system named is HeLa Kyoto. The data set is described as follows: thermal stability score vs G1/S (z-score of summed log2 fold changes over temperatures); higher = more thermally stable than in G1/S.
Setting [5] is: cell cycle stage: early G1 (4.5 h after nocodazole release).
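For melting temperature (median over replicates), in situ in this document: HeLa Kyoto cells synchronized by double thymidine or nocodazole block, proteins quantified by TMT10plex mass spectrometry, three independent biological replicates.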
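For solubility change mitosis vs G1/S (difference of NP-40 vs SDS log2 ratios) in this document: synchronized HeLa Kyoto cells (double thymidine block for G1/S, nocodazole release for mitosis), protein amounts in NP-40 versus SDS lysates quantified by mass spectrometry, three biological replicates.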
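For solubility in G1/S (NP-40 vs SDS abundance) in this document: HeLa Kyoto cells arrested at G1/S by double thymidine block, proteins quantified by TMT10plex mass spectrometry in mild NP-40 versus SDS extracts, three biological replicates.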
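For thermal stability score vs G1/S (z-score of summed log2 fold changes over temperatures) in this document: synchronized HeLa Kyoto cells, proteins quantified by TMT10plex mass spectrometry, three biological replicates, mitosis taken 0.5 h after nocodazole release, G1/S directly after double thymidine block.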

Take “MALQVELVPTGEIIRVVHPHRPCKLALGSDGVRVTMESALTARDRVGVQDFVLLENFTSEAAFIENLRRRFRENLIYTYIGPVLVSVNPYRDLQIYSRQHMERYRGVSFYEVPPHLFAVADTVYRALRTERRDQAVMISGESGAGKTEATKRLLQFYAETCPAPERGGAVRDRLLQSNPVLEAFGNAKTLRNDNSSRFGKYMDVQFDFKGAPVGGHILSYLLEKSRVVHQNHGERNFHIFYQLLEGGEEETLRRLGLERNPQSYLYLVKGQCAKVSSINDKSDWKVVRKALTVIDFTEDEVEDLLSIVASVLHLGNIHFAANEESNAQVTTENQLKYLTRLLSVEGSTLREALTHRKIIAKGEELLSPLNLEQAAYARDALAKAVYSRTFTWLVGKINRSLASKDVESPSWRSTTVLGLLDIYGFEVFQHNSFEQFCINYCNEKLQQLFIELTLKSEQEEYEAEGIAWEPVQYFNNKIICDLVEEKFKGIISILDEECLRPGEATDLTFLEKLEDTVKHHPHFLTHKLADQRTRKSLGRGEFRLLHYAGEVTYSVTGFLDKNNDLLFRNLKETMCSSKNPIMSQCFDRSELSDKKRPETVATQFKMSLLQLVEILQSKEPAYVRCIKPNDAKQPGRFDEVLIRHQVKYLGLLENLRVRRAGFAYRRKYEAFLQRYKSLCPETWPTWAGRPQDGVAVLVRHLGYKPEEYKMGRTKIFIRFPKTLFATEDALEVRRQSLATKIQAAWRGFHWRQKFLRVKRSAICIQSWWRGTLGRRKAAKRKWAAQTIRRLIRGFVLRHAPRCPENAFFLDHVRTSFLLNLRRQLPQNVLDTSWPTPPPALREASELLRELCIKNMVWKYCRSISPEWKQQLQQKAVASEIFKGKKDNYPQSVPRLFISTRLGTDEISPRVLQALGSEPIQYAVPVVKYDRKGYKPRSRQLLLTPNAVVIVEDAKVKQRIDYANLTGISVSSLSDSLFVLHVQRADNKQKGDVVLQSDHVIETLTKTALSANRVNSININQGSITFAGGPGRDGTIDFTPGSELLITKAKNGHLAVVAPRLNSR [MYO1C]”: in the data set with HeLa Kyoto [1], the “solubility in G1/S (log2)” value was -0.972. In addition, the melting temperature in the data set with HeLa Kyoto [2] (cell cycle stage: G1/S) came to 50.1 °C; in the data set on HeLa Kyoto [2] (cell cycle stage: mitosis), 50.2 °C. Besides, the “solubility change mitosis (log2)” value in the data set on HeLa Kyoto [3] was -0.0879. The thermal stability score is -1.1 in the data set on HeLa Kyoto [4] (setting [5]) and 3.69 with HeLa Kyoto [4] (cell cycle stage: mitosis).

As to “MDEQALLGLNPNADSDFRQRALAYFEQLKISPDAWQVCAEALAQRTYSDDHVKFFCFQVLEHQVKYKYSELTTVQQQLIRETLISWLQAQMLNPQPEKTFIRNKAAQVFALLFVTEYLTKWPKFFFDILSVVDLNPRGVDLYLRILMAIDSELVDRDVVHTSEEARRNTLIKDTMREQCIPNLVESWYQILQNYQFTNSEVTCQCLEVVGAYVSWIDLSLIANDRFINMLLGHMSIEVLREEACDCLFEVVNKGMDPVDKMKLVESLCQVLQSAGFFSIDQEEDVDFLARFSKLVNGMGQSLIVSWSKLIKNGDIKNAQEALQAIETKVALMLQLLIHEDDDISSNIIGFCYDYLHILKQLTVLSDQQKANVEAIMLAVMKKLTYDEEYNFENEGEDEAMFVEYRKQLKLLLDRLAQVSPELLLASVRRVFSSTLQNWQTTRFMEVEVAIRLLYMLAEALPVSHGAHFSGDVSKASALQDMMRTLVTSGVSSYQHTSVTLEFFETVVRYEKFFTVEPQHIPCVLMAFLDHRGLRHSSAKVRSRTAYLFSRFVKSLNKQMNPFIEDILNRIQDLLELSPPENGHQSLLSSDDQLFIYETAGVLIVNSEYPAERKQALMRNLLTPLMEKFKILLEKLMLAQDEERQASLADCLNHAVGFASRTSKAFSNKQTVKQCGCSEVYLDCLQTFLPALSCPLQKDILRSGVRTFLHRMIICLEEEVLPFIPSASEHMLKDCEAKDLQEFIPLINQITAKFKIQVSPFLQQMFMPLLHAIFEVLLRPAEENDQSAALEKQMLRRSYFAFLQTVTGSGMSEVIANQGAENVERVLVTVIQGAVEYPDPIAQKTCFIILSKLVELWGGKDGPVGFADFVYKHIVPACFLAPLKQTFDLADAQTVLALSECAVTLKTIHLKRGPECVQYLQQEYLPSLQVAPEIIQEFCQALQQPDAKVFKNYLKVFFQRAKP [XPOT]”, the “solubility in G1/S (log2)” value with HeLa Kyoto [1] was -0.059. The melting temperature with HeLa Kyoto [2] (cell cycle stage: G1/S) turned out to be 49.5 °C; in the data set with HeLa Kyoto [2] (cell cycle stage: mitosis), 50.1 °C. In the data set with HeLa Kyoto [3], the “solubility change mitosis (log2)” value was -0.226. For the same sequence, the thermal stability score in the data set with HeLa Kyoto [4] (setting [5]) amounted to 1.65; in the data set with HeLa Kyoto [4] (cell cycle stage: mitosis), 3.04.

As for “MSGQRVDVKVVMLGKEYVGKTSLVERYVHDRFLVGPYQNTIGAAFVAKVMSVGDRTVTLGIWDTAGSERYEAMSRIYYRGAKAAIVCYDLTDSSSFERAKFWVKELRSLEEGCQIYLCGTKSDLLEEDRRRRRVDFHDVQDYADNIKAQLFETSSKTGQSVDELFQKVAEDYVSVAAFQVMTEDKGVDLGQKPNPYFYSCCHH [RAB24]”, the “solubility in G1/S (log2)” value in the data set with HeLa Kyoto [1] was -0.101. Further, the melting temperature with HeLa Kyoto [2] (cell cycle stage: G1/S) is 53.8 °C; with HeLa Kyoto [2] (cell cycle stage: mitosis), 54.2 °C. Also, the “solubility change mitosis (log2)” value with HeLa Kyoto [3] was -0.172. For the same sequence, the results for the thermal stability score with HeLa Kyoto [4] (setting [5]) and in the data set with HeLa Kyoto [4] (cell cycle stage: mitosis) were -0.25 and -0.316, respectively.

Take “MDNSGKEAEAMALLAEAERKVKNSQSFFSGLFGGSSKIEEACEIYARAANMFKMAKNWSAAGNAFCQAAQLHLQLQSKHDAATCFVDAGNAFKKADPQEAINCLMRAIEIYTDMGRFTIAAKHHISIAEIYETELVDIEKAIAHYEQSADYYKGEESNSSANKCLLKVAGYAALLEQYQKAIDIYEQVGTNAMDSPLLKYSAKDYFFKAALCHFCIDMLNAKLAVQKYEELFPAFSDSRECKLMKKLLEAHEEQNVDSYTESVKEYDSISRLDQWLTTMLLRIKKTIQGDEEDLR [NAPA]”: in the data set on HeLa Kyoto [1], the “solubility in G1/S (log2)” value came out at 0.324. Moreover, the melting temperature in the data set with HeLa Kyoto [2] (cell cycle stage: G1/S) was 51.7 °C; in the data set on HeLa Kyoto [2] (cell cycle stage: mitosis), 52.2 °C. Besides, the “solubility change mitosis (log2)” value in the data set with HeLa Kyoto [3] is 0.0471. Further, the values for the thermal stability score with HeLa Kyoto [4] (setting [5]) and in the data set with HeLa Kyoto [4] (cell cycle stage: mitosis) were -0.447 and -0.81, respectively.

Regarding “MGQTVNEDSMDVKKENQEKTPQSSTSSVQRDDFHWEEYLKETGSISAPSECFRQSQIPPVNDFKVGMKLEARDPRNATSVCIATVIGITGARLRLRLDGSDNRNDFWRLVDSPDIQPVGTCEKEGDLLQPPLGYQMNTSSWPMFLLKTLNGSEMASATLFKKEPPKPPLNNFKVGMKLEAIDKKNPYLICPATIGDVKGDEVHITFDGWSGAFDYWCKYDSRDIFPAGWCRLTGDVLQPPGTSVPIVKNIAKTESSPSEASQHSMQSPQKTTLILPTQQVRRSSRIKPPGPTAVPKRSSSVKNITPRKKGPNSGKKEKPLPVICSTSAASLKSLTRDRGMLYKDVASGPCKIVMSTVCVYVNKHGNFGPHLDPKRIQQLPDHFGPGPVNVVLRRIVQACVDCALETKTVFGYLKPDNRGGEVITASFDGETHSIQLPPVNSASFALRFLENFCHSLQCDNLLSSQPFSSSRGHTHSSAEHDKNQSAKEDVTERQSTKRSPQQTVPYVVPLSPKLPKTKEYASEGEPLFAGGSAIPKEENLSEDSKSSSLNSGNYLNPACRNPMYIHTSVSQDFSRSVPGTTSSPLVGDISPKSSPHEVKFQMQRKSEAPSYIAVPDPSVLKQGFSKDPSTWSVDEVIQFMKHTDPQISGPLADLFRQHEIDGKALFLLKSDVMMKYMGLKLGPALKLCYYIEKLKEGKYS [SCML2]”, in the data set with HeLa Kyoto [1], the “solubility in G1/S (log2)” value is -0.0128. Further, the values for the melting temperature with HeLa Kyoto [2] (cell cycle stage: G1/S) and in the data set on HeLa Kyoto [2] (cell cycle stage: mitosis) were 44.9 °C and 49.1 °C, respectively. For the same sequence, in the data set on HeLa Kyoto [3], the “solubility change mitosis (log2)” value amounted to 0.137. The results for the thermal stability score with HeLa Kyoto [4] (setting [5]) and in the data set on HeLa Kyoto [4] (cell cycle stage: mitosis) were 4.21 and 8.66, respectively.

(Values after the supplement of paper PMC5998384.)
